Experimental data: patent US20170106051A1 (BAYLOR RESEARCH INSTITUTE, published 2017)

Key:
human DCIR = target: T1, human DCIR (human, UniProt Q9UMR7 1-237); assay: flow cytometry on purified human blood pDCs, detection with anti-human IL-10
T1 construct: whole, on cells; The assay was on primary human blood DCs
T1 sequence (looked up): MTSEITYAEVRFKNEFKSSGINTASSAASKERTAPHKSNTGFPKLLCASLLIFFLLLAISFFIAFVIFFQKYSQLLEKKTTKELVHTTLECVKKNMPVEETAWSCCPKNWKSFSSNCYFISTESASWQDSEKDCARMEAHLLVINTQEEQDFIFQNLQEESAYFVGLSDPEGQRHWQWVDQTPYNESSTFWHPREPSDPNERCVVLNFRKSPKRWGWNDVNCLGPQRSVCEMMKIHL
Experimental: (§1) The ability of antibody-IL-10 fusion proteins to bind to human DCs was measured. Both myeloid DC (mDCs) and plasmacytoid DCs (pDCs) were purified from human blood. DCs were incubated for 20 min in ice in the presence of different concentrations of recombinant fusion proteins of antibody and IL-10 (FIG. 1). After vigorous washing, DCs were further stained with anti-human IL-10 to detect surface bound antibody-IL-10 fusion proteins using flow cytometry.

human CD40 = target: T2, human CD40 (human, UniProt P25942 21-277); assay: flow cytometry on purified human blood mDCs, detection with anti-human IL-10
T2 construct: whole, on cells; The assay was on primary human blood DCs; also called hCD40
T2 sequence (P25942 21-277): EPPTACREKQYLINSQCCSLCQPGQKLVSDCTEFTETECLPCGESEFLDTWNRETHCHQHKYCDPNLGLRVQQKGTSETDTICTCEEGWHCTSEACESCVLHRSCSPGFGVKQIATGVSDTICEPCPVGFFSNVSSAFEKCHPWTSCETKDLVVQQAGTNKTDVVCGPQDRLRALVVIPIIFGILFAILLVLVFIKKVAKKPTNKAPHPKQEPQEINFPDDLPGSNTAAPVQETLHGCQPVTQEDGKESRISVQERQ
Experimental: as §1

Binder	binding result (human DCIR)	binding result (human CD40)
mAnti-DCIR_9E8_H-LV-hIgG4H-C-Flex-v1-hIL-10 antibody (antibody, Mouse/human chimeric IgG4 kappa antibody with human IL-10 fused through a linker to the C-terminus of the heavy chain; also called anti-DCIR (9E8)-IL-10; Anti-DCIR-9E8-hIL-10) heavy: not shown light: NIVLTQSPASLAVSLGQRATISCRASESIHSYGNSFLHWYQQKPGQPPKLLIYLASNLESGVPARFSGSGSRTDFTLTIDPVEADDAATYYCQQNNEDPWTFGGGTKLEIKRTVAAPSVFIFPPSDEQLKSGTASVVCLLNNFYPREAKVQWKVDNALQSGNSQESVTEQDSKDSTYSLSSTLTLSKADYEKHKVYACEVTHQGLSSPVTKSFNRGEC	binds	
manti-hCD40_24A3.3F1_H-LV-hIgG4H-C-Flex-v1-hIL-10 antibody (antibody, Mouse/human chimeric IgG4 kappa antibody with human IL-10 fused through a linker to the C-terminus of the heavy chain; also called anti-CD40 (24A3)-IL-10; Anti-CD40-24A3-hIL-10) heavy: not shown light: QIVLTQSPAFMSASPGEKVTMTCSASSSVSYMHWYQQKSGTSPKRWIYDTSKLASGVPARFSGSGSGTSYSLTISSMEAEDAATYYCQQWSSNPLTFGAGTKLEIKRTVAAPSVFIFPPSDEQLKSGTASVVCLLNNFYPREAKVQWKVDNALQSGNSQESVTEQDSKDSTYSLSSTLTLSKADYEKHKVYACEVTHQGLSSPVTKSFNRGECAS		binds
